From the nanobody polyreactivity screen of Harvey et al. (2022)

Assay: yeast display, Sf9 membrane polyspecificity reagent, FACS + sequencing; frameworks hold sequencing errors
How it was run: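 After 36–48 hours of galactose induction, yeast (Saccharomyces cerevisiae BJ5465) displaying a synthetic nanobody library were stained at 4 °C for 1 hour with 10% biotinylated, detergent-solubilized Sf9 membrane reagent. Streptavidin microbeads enriched the stained cells before FACS sorting into low and high (top ~1%) gates on anti-HA and streptavidin fluorescence. Each clone's polyreactivity label reflects its gate of origin.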

Sequence	polyreactivity (PSR sort gate)
QVQLVESVGGLVQAGGSLRLSCAASGRTFNYYARGWYRQAPGKERELVAAISWSGTPTYYADSVKGRFTISRDNAKNTVYLQMNSLKPEDTAVYYCAAYLVSYPRGNYIRYDYWGQGTQVTVSS	low polyreactivity
QVQLVESGGGLVQAGGILRLSCAASGSTFGYNAMGWYRQAPGKERELVAAIRFSGGSTFYADSVKGRFTISRDNAKNTVYLQMNSLKPEDTAVYNCAAGSAYYSQRYFAYGYDSWGQGTQVTVSS	low polyreactivity
QDQLVESGGGLVQAGGSLRLSCAGCAYIFGRYAMGWYRQAPGKEMELVAAITQRGGRTYYPDSVKGRFTISRDNAKNTVYLQMNSLKPEDTAVYYCAALLYFFLYDYWGQGTQVTVSS	low polyreactivity
QVQLVESGGGLVQAGGSLRLSCAASGITFFGYAMGWYRQAPGKERELVAAISYSGGSTYYADSVKGRFTISRDNAKNTVYLQMNSLKPEDTAVYYCNARQAGTRYKYGYYGRYYWGQGTQVTVSS	high polyreactivity
QVQLVESGGGLGQAGGSLRLSCAASGSIFYSYAMGWYRQAPGKDRELVADISSDGSTNYADSVKGRFTISRDNAKNTVFLQMNSLKPEDTAVYYCAKKPSSARYVTIGFDYWGQGTQVTVSS	low polyreactivity
QVQLVESGGGLVQAGGSLRLSCAASGTFPVYTMGWYRQAPGKERELVAAISRNGGSTYYADSVKGRFTISRDNAKNTVYLQMNSLKPEDTAVYYCAAVKVKRPGMDYWGQGTQVTVSS	high polyreactivity
QVQLVESGGGLVQAGGSLRLSCAASGSIFRINAMGWYITAPGKERELVAAISWSGGSTYYADSVKGRFTISRDNAKNTVYLQMNSLKPEDTAVYYCAAVVSKSSFDYWGQGTQVTVSS	low polyreactivity
QVQLVESGGGLVQARGSLRLICAASGYIFRGYAMGWYRQAPGKERELVASISRTGVSTYYADSVKGRFTISRDNAKNTVYLQMNSLKPEDTAVYYCAADYYYWYYKSGYDYWGQGTQVTVSS	high polyreactivity
QVQLVESGGGLVQAGGSLRLSCAASGFIFDYYAMGWYRQAPGKERELVGAITSGDSTNYADSVKGRFTISRDNAKNTVYLQMNSLKPEDTAVYYWGQGTQVTVSS	low polyreactivity
QVQLVESGGGLVQAGGSLRLSCAASGRTFPAYTMGWYRPAPGKERELVAAIRWSGGRTRYADSVKGRFTISRDNAKNTVYLQMNSLKPEDTAVYYCAAYRLSKPFYKYDYWGQGTQVTVSS	high polyreactivity
QVQLVESGGGLVQAGGSLRLSCAASGSIFRGYAMGWYRQAPGKERELVASIRWRGGRTNYADSVKGRFTISRDNAKNTVYLQRNSLKPEDTAVYYCNADQQTIRSAKNDYWGQGTQVTVSS	low polyreactivity
QVQLVESGGGLVQAGCSRRLSCSASGSIFRGNSMGWYRPAPGKERELVAAITGSGGNTYYADSVKGRFTISRDNAKNTVYLQMNSLKPEDTAFYYCIADGWNTYIGPRRYRYDYWGQGTQVTVSS	low polyreactivity
QVQLVESGGGLVQAGGSLRLSCAASGLTFGRNAMGWYRQAPGKERELVAAISQSGDRTYYADSVKGRFTISRDNAKNTVYLQMNSLKPEDTAVYYCNAVSSRGWYDYWGQGTQVTLSS	high polyreactivity
QVQLVESGGGLVQAGGSLRLSCAASGRTFGRNAMGWYRQAPGKERELVAAINSGGSTKYADSVKGRFTISRDNAKNTVYLQMNSLKPEDTSVYYCARRGGFSYYYWGQGTQVTVSS	high polyreactivity
QVQLVESGGGLVQAGGSLRLSCAASGRTIYYYARGWYRQAPGKERELVAAITLRGGSTYYADSVKGRFTISRDNAKKTVYLQMNSLKPEDTAVYYCAKESTVRRYDYWGQGTQVTVSS	low polyreactivity
QVHLVESRGVLVQAGGSLRLSCAASGRTFQPYAMGWYRQSPGKERELVADITWNTGRTYYADSVKGRFTISRDNAKNTVYLQMNSLIPEDTAVYYCAGDDLGDYRFYKIYDYWGQGTQVTVSS	high polyreactivity
QVQLVESGGGLVQAGGSLRLSCAASGFTFYRYAMGWYRPAPGKERELVAAITSGGSTYYADSVKGRCTISRDNAKNTVFLQMISLKPEDTAVYSCAAQKARVSPGAWTRYVYWGQGTQVTVSS	high polyreactivity
